# Source: the nanobody polyreactivity screen of Harvey et al. (2022)
# Assay: yeast display, Sf9 membrane polyspecificity reagent, FACS + sequencing; frameworks hold sequencing errors
# How it was run: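 In a synthetic yeast display library (Saccharomyces cerevisiae BJ5465), nanobody expression was induced with galactose for 36–48 hours. FACS gates were set low and high (top ~1%) using anti-HA fluorescence for expression and streptavidin fluorescence for binding of the Sf9 membrane reagent. Each polyreactivity label is drawn from the gate of origin.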
row,Sequence,polyreactivity (PSR sort gate)
1,QVQLVESGGGLVQAGGSLRLSCAASGRIFPRYAMGWYRQAPGKERELVARITRRGGITYYADSVKGRFTISRDNAKNTVYLQRNSLIPEDTAVYYCNVDYYSGGEFSYGYDYWGQGTQVTVSS,high polyreactivity
2,QVQLVESGGGLVQAGGSLRLSSAASGFIFRGYAMGWYRQAPGKERELVAVISRSGTSTYYADSVKGRFTFSRDNAKNTVYLQMNSLKPEDTAVYYCAVLNYAGKYYYWGQGTQVTVSS,high polyreactivity
3,QVQLVESGGGLVQAGGSLRLSCAASGSTFTRYAMGWYRQAPGKERELVAAISRGGSTNYADSVKGRFTISRDNAKNTVYLQMNSLKPEDTAVYYCAKGSNRSRGYYWGQGTQVTVSS,high polyreactivity
4,QVQLVESGGGLVQAGGSLRLSCAASGFIFTPYAMGWYRQAPGKERELVAAIRSGTSTNYADSVKGRFTISRDNAKNTVYLQMNSLKPEDTAVYYCAAEEGLIDGRAWYGYWGQGTQVTVSS,low polyreactivity
5,QVQLVESGGGLVQAGGSLRLSCAASGFIFPYNAMGWYRQAPGKERELVAVISSSGGDTYYADSVKGRFTISRDNAKNTVYLQMNSLKPEDTAVYYCAADSYYGYEYWGQGTQVTVSS,low polyreactivity
6,QVQLVESGGGLVQAGGILRLSCAASGFTSWDNDMGWYRQAPGKERELVAAISRGGSTNYADSVKGRFTLSRDNAKNTVYLQMNSLKPEDPAVYYCATAAVTPVWYDYWGQGTQVTVSS,low polyreactivity
7,QVQLLESGGGLVLAGGSLRLSCAASGFIIRPYAIGWYRQAPGKERELVAAITYSSGSTYYADSVKGRFTISRDNAKYTVYLEMNSLKPEDTAVYYCNAEFWYETLYEYDYWGQGTQLTVSS,high polyreactivity
8,QVQLQESGGGLEQAGGSLRLTCAASGNISVTGFMGWYRQEPGKEREIVASIGIGGTTYYADSVKGRFYISRDNAKNTVYLQMNSLKPEDTAVYYCADRYLYYAYSYWCQGTQVTVSS,low polyreactivity
9,QVQLVESGGGLVQAGGSLRLSCAASGSTFSRYVMGWYRQAPGKERELVAAISSTGGSTYYADSVKGRFTISRDNAKNTVYLQMNSLKPEDTAVYYCNTTYSYGVAAARYYYWGQGTQVTVSS,high polyreactivity
10,QVQLVESGGGLVQAGGSLRLSCAASGFTLHSYAMGWYRQAPWKERELVAAITRSGGGTYYADSVKGRFTISRDNAKNTVYLQMNSLKPEDTAVYYCAARFGGQYQHDYWGQGTQVTVSS,high polyreactivity
11,QVQIEESGGGLVQAGGSLRLSCAASGLIFYYYAMGWYRQAPRKERELVAVFTESGYSTYYADYVKGLFTISRDYAKNNDYLQMNRLKPEDTAVYYCAAHGRAYVGGVGDDYWGQGTQVTVSS,low polyreactivity
12,QVQLVESGGGLVQAGGSLRFSCAASGRTFYRNVMGWYRQAPGKERELVAVITSGGSTNYADSVKGRFTISRDNAQNTVYLQMNSLKPEDTAVYYCNTALSSRSNKMYYWGQGTQVTVSS,high polyreactivity
13,QVQLVESGGGLVQAGGSLRLSCAASGFIFTWYTMGWYRQAPGKERELVAAITSGGNTNYADSVKGRFTISRDNAKNTVYLQMNSLKPEDTAVYYCARGYLASRLKFAKYDYWGQGTQVTVSS,high polyreactivity
14,QVQLVESGGGLVQAGGSLRLSCAASGRILGNNVMGWYRQAPGKERELVAAITSSGGRTYYADSVKGRFTISRDNAKNTVYLQMNSLKPVDTAVYYCAAERRYYGKFNYWGQGTQVTVSS,high polyreactivity
15,QVQLVESGGGLVQAGGSLRLSCAASGITFATNAMGWYRQAPGKERELVAAISWSGGSTYYADSVKGRFTISRDNAKNTVYLQMNSLKPEDTAVYYCATGYSVWYDYWGQGTQVTLSS,low polyreactivity
16,QVQLVESGGGLVQAGGSLRLSCAASGSTFQLYAMGWYRQAPGKESELVASISWSGGSTYYADSVKGRFTISRDNAKNTVYLQMNSLKPEDTAVYYCAADSRLYLRDDYWGQGTQVTVSS,low polyreactivity
17,QVQLVESGGGLVQAGGSLRLSCAASGSIFTYYVMGWYRQAPGKERELVATITGSSGSTYYADSVKGRFTISRDNAKNTVYLQMNSLKPEDTAVYYCNRTYYHYLYRGYGYWGQGTQVTVSS,low polyreactivity
18,HVQLVESGGGLVQAGGSLRLSCAASGSIFRGNAMGWYRQAPGKERELVAAISKSGGSTYYADSVKGRFTISRDNAKNTVFVQMNSLKPEDTAVYYCAARTTYLYGMYYWGQGTQVTVSS,low polyreactivity
19,QVQLVESGGGLVQAGGSLRLSCAASGSTFLGNVMGWYRQAPGKERELVAAITSTGGNTYYADSVKGRFTISRDNAKNSVYLQMNSLKPEDTAVYYCAKKYVWTHNYWGQGTQVTVSS,low polyreactivity
20,QVQLVESGGRLVQAGGSLRLTCAASGYTYSYYAMGWYRQAPGKERELVAAINYSGGRTYYADSVKGRFTISRDNAKNTVYLQMNSLKPEDTAVYYCAAYTRNGDYDYWGQGTQVTVSS,high polyreactivity
21,QVQLVESGGGLVQAGGSLRLSCAASGSIFRHYAMGWYSQAPGKERELVASITLRGGSTYYADSVKGPFTISRDNAKNTVYLQMNSLKPEDTAVYYCAKRAGPEYDYWGQGTQVTVSS,low polyreactivity
22,QVQLVESGGGIVQAGGSLRLSWAASGRIFYAYAMRWSRQAPGKERELVASLSGGGSTDYADSVKGRFTISRDNAKNTVVLQMNSLKPEDTAVYYCAAQYYLYRSRFDYWGQGTLVTVSS,high polyreactivity

row,Sequence,polyreactivity (PSR sort gate)
1,QVQLVESGGGLVQAGGSLRLSCAASGSIFPVNVMGWYRQAPGKERELVADITSTGTYYADSVKGRFTISRDNAKNTVYLQMNSLKPEDTAVYYCAKAGGSWYRRYYYWGQGTQVTVSS,high polyreactivity
2,QVQLVESGGGLVQAGGSLRLSCAASGFIFVWNAMGWYRQAPGKERELVANIRDGGITYADSVKGRFTITRDNAKNTVYLQMNSLKPEDTAVYYCARTNFYRSYEPGGRFYNYDYWGQGTQVTVSS,low polyreactivity
3,QVQLVESGGGLVQAGGSLRLSCAASGRTFRSYAMGWYRQAPGKERELVAGITTSGGSTYYADSVKGRFTISRDNAKNTVYLQMNSLKPEDTAVYYCNARSWYSFHPHDYWGQGTQVTVSS,high polyreactivity
4,QVQLVESGGGLVQAGGSLRLSCAASGRTLWYYTMGWYRQAPGKERELVADITRGTSTNYADSVKGRFTISRDNAKNSVYLQMNSLKPEDTAVYYCNRAHGRSRYSRDYESWGQGTQVTVSS,low polyreactivity
5,QVQLVESGGGLVQAGGSLRLSCAASGFIFKGYAMGWYRQAPGKERELVAAISSGGSTNYADSVKGRFTISRDNAKNTVYLQMNSLKPEDTAVYYCAAGRYIRHYWYGYWGQGTQVTVSS,high polyreactivity
6,QVQLVESGGGLVQAGGSLRLSCAASGIPFKGYAMGWYRQAPGQERELVAASNSRGGTYADSVKGRFTISRDNAKNTVYLQRNSLKPEDTAVYYCGVSAVRPLPLDSGYDYWGQGSQVTVSS,low polyreactivity
7,QVQLVESGGGLVQAGGSLRLSCAASGRTFSRNAMGWYRQAPGKERELVAAISWSGARTYYADSVKGRFTISRDNAKNTVYLQMNSLKPEDTAVYYCAARVPSWKYDYWGQGTQVTVSS,high polyreactivity
8,QVQRVETGGGLVQAGGSLRLSSAASVLTFKWYAMGWYRQSPGKERELVAAISRDGSTYYGDSVKVRFTISRDNAKNTVYLQMNSLKPEDTAVYYCAADIWPSSLLADEYDYWGQGTQVTVSS,high polyreactivity
9,QVQLVESGGGLVQAGGSLRLSCAASGFTFNAMGWYRQAPGKERELVARIDSDDTTNYADSVKGRFTISRDNAKNTVYLQMNSLKPEDTAVYYCNKDYAWLSYQHYDYWGQGTQVTVSS,low polyreactivity
10,QVQLVESGGGLVQAGGSLRLSCAASGRIFRFYAMGWYRHPPGKERELVAAIRRGGSTTYADSVKGRFTISRDNAKNTVYLQMNSLKPEDTAVYYCAATQYYRGYDYWGQGTQVTVSS,high polyreactivity
11,QVQLVESGGGLVQAGGSLRLSCAASGSIFPYYAMGWYRQAPGKEREFVAAITISGGSTYYADSVKGRFTISRDNAKNTVYLQMNSLKPEDTAVYYCAVDRGISVGYTRFDYWGKGTQVTVSS,low polyreactivity
12,QVQLVESGGGLVQAGGSLRLSCAASGRTFYTNAMGWYRQAPGKERELVAAITRGGTTYYADSVKGRFTISRDNAKNTVYLQMNSLKPVDTAVYYCAADTESIVATDLIRKYDYWGQGTQVTVSS,low polyreactivity
13,QVQLVESGGGLVQAGGSLRLSCAASGGIFYRYAMGWYRQAPGKERELVAAITSSGGSTYYADSVKGRFTISRDNAKNTVYLQMNSLKPEDTAVYYCAADYGYYGAGSYFDRGDYWGQGTQVTVSS,high polyreactivity
14,QGQHVESGGGLVQAGGSLRLSCAASGTFVYAMGWYRQAPGKERELVAAISYSGGSTYYADSVKGRFTISRDNAKNTVYLQMNSLKPEDTAVFYCNVLGWYYTTTKYDYWGQGTQVTVSS,high polyreactivity
15,QVQLVESGGGLDQAGGSLRLSCAASGSIFGYNGMGWYRQAPGKESEFVAAISYSGSRTYYADSVKGRFTISRDNAKNTVYLQMNSLKPEDTAVYYCATDDSHYLYRTVSAWEYDYWGQGTQVTVSS,low polyreactivity
16,QVQLVESGGGLVQAGGSLRLSCAASGITFGGNALGWYRQAPGTERELVAGIDDGGSTNYADSVKGRFTISRDNAKNTVYLQMNSLKPEDTAVYYCAVQGHPPLVILPGFLFDYWGQGTQVTVSS,low polyreactivity
17,QVQLVESGGGLFQAGGSLRLSCAASGSTFSPNGMGWYRQSPGKERELVAVISTTGGGTYYADSVKVRFTISRDNAKNTVYLQLNSLKPEDTAVYYCAADVWTYSWSWRKYVEFNYWGQGTQVTVSS,high polyreactivity
18,QVQLVESGGGLVQAGGSLRLSCAASGFTRIYAMGWYRQAPGKERELVAAISQRGGRTYYADSVKGRFTISRDNAKNTVYLQMNSLKPEDTAVYYCNADRRSYNYPEYEYDYWGQGTQVTVSS,high polyreactivity
19,QVQLVESGGGLVQAGGSLRLSCAASGRTFEHYAMGWYRQAPGKERELVAAITWSGVSTYYADSVKGRFTISRDNAKNTVYVQMNSLKPEDTAVYYCAANWLGYGFDYWGQGTQVTVSS,low polyreactivity
20,QVHLVESGGGLVQAGGSLRLSCAASGSTFIYYGMGWYRHAPGKERELVATISSGGSTNYADSVKGRFTISRDNAKNTVYLQMNSLKPEDTAVYYCAVAPYYYGLLWNTFYEYYYWGQGTQVTVSS,high polyreactivity
21,QVQLVESGGGLVQAGGSLRLSCAASGFTFGGNAMGWYRQAPGKERELVAAISGRGGRTFYADSVKGRFTISRDNAKNTVYLQMNSLKPEDTGVYYCAAYYRYDVGAYDYWGQGTQVTVSS,high polyreactivity
